This is an account of results in US6833192B1, “Encapsulation of crystals via multilayer coatings” (Max-Planck Gesellschaft Zur Forderrung der Wissenschaften …, priority 1999, dated 2004).

Where only a bound is given, the exact number is not on record here.

Data set [1] in a line: Determination of catalase activity (decomposition of H2O2 at 240 nm). It counts as biochemical. To be noted: after solubilization and release from the polymer capsules; uncoated catalase measured the same way for comparison. Here is the method: The enzyme was released from the polymer capsules by exposure to ultrasound for 5 min at 20° C. in 1 M phosphate buffer at pH 7 (this caused rupturing of the polymer walls). The catalase activity was determined using a standard enzyme activity assay (Biochemica Information, 15-16 Boehringer Mannheim (1987); Tijsen, Practice and Theory of Enzyme Immunoassays, 8th Impression (1993), Elsevier, 202-203): that is, by measuring the decomposition of the substrate hydrogen peroxide (H2O2) at 240 nm. The concentration of the catalase was determined spectrophotometrically at 280 nm and 405 nm (soret band). The specific acitvity of the uncoated catalase was measured in the same way and used for comparison.

Data set [2] deals with protease (Streptomyces griseus). Put plainly: Proteolysis experiment (decrease in catalase enzyme activity on protease incubation). The format is biochemical. Conditions: incubation time of 100 min, 37° C., pH 7; starting activity normalized to 100%. As to the method:
10 mg of protease (Streptomyces griseus; Sigma P6911; activity=5.2 U/mg solid) was dissolved in 500 μl of phosphate buffered saline (PBS, pH 7.0)(100 U/ml) and used as the stock solution. 200 μl samples of the polyelectrolyte-coated catalase and solubilized catalase where separately incubated in a water bath at 37° C. with either 30 μl of the stock protease solution of 30 μl of PBS (control experiment). The starting activity of the catalase for all samples was approximately 12000 U/ml catalase. The starting activities were normalized to 100%. The final protease activity in the sample was […]. Proteolysis of the catalase was determined by measuring the decrease in the catalase enzyme activity. The catalase activity measurements where carried out according to the previously described method (i.e. by spectrophotometric detection (240 nm) of the decomposition of hydrogen peroxide, see Tijsen, Practice and Theory of Enzyme Immunoassays, Elsevier, 8th Impression (1993), pp. 202-203.15). 5 μl samples were diluted and used for the activity measurements.

Data set [3] in a line: Electrophoretic mobility / Zeta-potential measurement. The format is physicochemical. Conditions: water at pH 5; by electrophoretic mobility. Here is the method:
Electrophoretic mobilities of the uncoated and polymer-multilayer coated enzyme crystals were measured using a Malvern Zetasizer 4 as described elsewhere (Caruso et al., J. Phys. Chem. B 102, 2011-2116 (1998); Sukhorukov, G. B. et al., Polym. Adv. Technol. 9, 759-767 (1998); Donath et al., Angew. Chem. Int. Ed. 37, 2201-2205 (1998). The mobility u was converted into a ξ-potential using the Smoluchowski relation ξ=uη/ε, where η and ε are the viscosity and permittivity of the solution, respectively. Atomic force microscopy (AFM) images were obtained using a Digital Instruments Nanoscope IIIa AFM in tapping mode (TM) on samples deposited onto cleaned glass slides and air-dried. Samples for transmission electron microscopy (TEM) were prepared by deposition of aqueous solutions of the hollow polymer capsules upon a carbon-coated copper grid, allowing them to air dry for one minute, and then blotting off the extra solution.

B1: catalase (protein, UniProt P00432 2-527, looked up)
Catalase: ADNRDPASDQMKHWKEQRAAQKPDVLTTGGGNPVGDKLNSLTVGPRGPLLVQDVVFTDEMAHFDRERIPERVVHAKGAGAFGYFEVTHDITRYSKAKVFEHIGKRTPIAVRFSTVAGESGSADTVRDPRGFAVKFYTEDGNWDLVGNNTPIFFIRDALLFPSFIHSQKRNPQTHLKDPDMVWDFWSLRPESLHQVSFLFSDRGIPDGHRHMNGYGSHTFKLVNANGEAVYCKFHYKTDQGIKNLSVEDAARLAHEDPDYGLRDLFNAIATGNYPSWTLYIQVMTFSEAEIFPFNPFDLTKVWPHGDYPLIPVGKLVLNRNPVNYFAEVEQLAFDPSNMPPGIEPSPDKMLQGRLFAYPDTHRHRLGPNYLQIPVNCPYRARVANYQRDGPMCMMDNQGGAPNYYPNSFSAPEHQPSALEHRTHFSGDVQRFNSANDDNVTQVRTFYLKVLNEEQRKRLCENIAGHLKDAQLFIQKKAVKNFSDVHPEYGSRIQALLDKYNEEKPKNAVHTYVQHGSHLSAREKANL
modifications: crystals
notes: catalase enzyme crystals (Sigma, C-100), uncoated template and comparison
B1 had a recovered specific activity in data set [1] of 100%. The inactivation by protease in data set [2] was > 90%. For the same molecule, in data set [3], the “Zeta potential (surface charge)” value is “+20 mV”.
